Target: T1, MBP-Slx5 (UniProt P32828 1-619)
T1 construct: Plasmid was a gift from Dr Oliver Kerscher; also called MBP-tagged SLX5; source: E. coli Rosetta, purified (amylose resin)
T1 sequence (looked up): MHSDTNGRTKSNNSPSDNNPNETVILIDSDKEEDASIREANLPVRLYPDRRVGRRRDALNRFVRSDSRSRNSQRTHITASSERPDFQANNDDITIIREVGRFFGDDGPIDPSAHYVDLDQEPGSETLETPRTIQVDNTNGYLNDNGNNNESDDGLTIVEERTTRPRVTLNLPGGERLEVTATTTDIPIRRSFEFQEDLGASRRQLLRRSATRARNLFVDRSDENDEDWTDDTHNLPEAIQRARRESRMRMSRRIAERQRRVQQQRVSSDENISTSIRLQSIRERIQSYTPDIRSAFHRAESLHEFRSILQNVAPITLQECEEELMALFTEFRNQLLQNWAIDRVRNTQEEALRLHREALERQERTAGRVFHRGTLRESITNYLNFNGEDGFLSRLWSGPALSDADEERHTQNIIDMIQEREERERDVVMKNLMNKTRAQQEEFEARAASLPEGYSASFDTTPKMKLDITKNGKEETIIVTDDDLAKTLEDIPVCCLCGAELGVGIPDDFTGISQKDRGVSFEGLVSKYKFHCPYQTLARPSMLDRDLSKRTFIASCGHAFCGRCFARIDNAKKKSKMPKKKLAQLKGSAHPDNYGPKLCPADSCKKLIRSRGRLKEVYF
Experiment: pull-down; MBP-Slx5 or MBP alone immobilised on amylose beads, incubated with purified GST, GST-Smt3 or GST-Smt3-K38/40A; washes, SDS-PAGE, immunoblot with anti-MBP and anti-GST
Settings: both partners purified

fold reduction in binding against WT Smt3: > 5 fold
B1: GST-tagged Smt3-K38/40A mutant (natural protein, S. cerevisiae)
chain: EVKPEVKPETHINLKVSDGSSEIFFAIAKTTPLRRLMEAFAKRQGKEMDSLRFLYDGIRIQADQTPEDLDMEDNDIIEAHREQIGG
notes: Smt3 of S. cerevisiae with K38A and K40A; SMT3^K38/40A cloned into pGEX-6p-1; also called GST-SMT3^K38/40A; GST-Smt3-K30/40A; source: E. coli Rosetta, purified (Glutathione Sepharose 4B)

— PMC9898758, “Analysis of a degron-containing reporter protein GFP-CL1 reveals a role for SUMO1 in cytosolic protein quality control” (The Journal of Biological Chemistry, 2022)
